# Source: patent publication US10227575B2, “Multi-domain enzymes having cutinase activity, compositions comprising same and uses thereof” (OZYMES, priority 2015, dated 2019)
# Where two headings read alike, the source gives them in different places. Marks after values point to notes of the source that are not given here.
# B1: Am-Kr: chimeric variant: AmCUT fused to the T/P-rich linker domain and polymer binding domain of KrCUT, SEQ ID NO: 27 (protein)
# chain: ACSDLEIVFARGSGEAPGLGITGTPLVSDVKSALSSASVSSYAVDYAASYDQTSAGPGATDMSNHIKSTAAACPDTKFAIGGYSQGASVTDIAIGIRTYLGTGQTIPTELAPRVVAVIAFGNPLGLYGQTIKTASPTYGPKSLEFCNRGDNVCGGTGTGPGYGHLSYARDGSVDQAAAFIAKQYNASAGTPTTPTPTPTPTPVPTTCVRDSTRDHVAADRAVSLYGRAYARGSRDSLGATSSYNVVSLQQVEGGWRLVTAC
# modifications: YebF carrier; Am-Kr variant
# Columns and labels:
# [1] = assay type: biochemical, Petromyces albertensis; conditions: for Residual ochratoxin A (%): 5 ppm Ochratoxin A, 37° C., relative to incubation without enzyme
# Method: The enzymes purified in Example 18 were tested for their ability to degrade the mycotoxin Ochratoxin A. In general, the mycotoxin was incubated with different concentrations of the enzyme, and the remaining mycotoxin concentration, as well the respective degradation products, were monitored by LC-MS over time (where possible/applicable).
# Reactions were performed in 1 mL volumes in glass HPLC vials comprising the mycotoxin to be analyzed and the enzyme to be tested. For Ochratoxin A (Petromyces albertensis, 01877 Sigma), 50 μL of a 100 ppm stock solution in methanol (final concentration of 5 ppm) was added to 910 μL of distilled water and 40 μL of the enzyme to be tested. In control reactions, the volume of enzyme was substituted with distilled water. The reactions were incubated in an Eppendorf thermomixer at 37° C. with shaking at 750 rpm. 100 μL samples were withdrawn at 1, 4 and 24 h for chromatographic analysis.
# Mycotoxin analysis was carried out using a Shimadzu LCMS-2020 equipped with a UV/vis detector. Chromatographic separation of 10 μL injected sample was carried out at 30° C. on a Kinetex 2.6 μm XB-C18 column 100 Å (50×2.1 mm) using a binary gradient. For Ochratoxin A, eluent A consisted of water and eluent B consisted of acetonitrile and the UV detection wavelength was 360 nm.
# The five enzymes tested were screened for their ability to degrade 5 ppm (5,000 ppb) Ochratoxin A at 37° C.
# [2] = Circular dichroism spectroscopy, melting temperature and refolding; assay type: physicochemical
# Method: CD spectra were recorded using a Jasco™ J-815 spectrometer operating with the Spectra™ Manager software. Temperature was controlled using a Jasco™ PFD-452S peltier unit. Previously purified protein solutions were adjusted to 0.15 mg/mL (if quantities allowed for) and CD spectra were recorded between 190 and 250 nm using a Quartz cuvette (ID=0.1 cm). Blanks containing buffer only were prepared and used as baseline. Temperature dependent protein unfolding was monitored at 222 nm with thermo profiles ranging from 20 up to 90° C. (2° C. min-1). Samples were kept for 5 min at the respective maximum temperature and protein refolding was monitored using the same conditions as above reversing the thermo profiles. Thermodynamic parameters (Tm, ΔH, ΔS, ΔG) for the folding/unfolding process, if applicable, were calculated using the Spectra™ Manager software.
# [3] = Stability in the presence of hydrogen peroxide; assay type: physicochemical
# Method: Esterase activity was determined by monitoring the formation of para-nitrophenol (pNP) at 410 nm from various pNP-esters using a Beckman UV spectrophotometer (model DU 640). Substrates were completely dissolved in 2-propanol (8 mM) and were then added to 50 mM Tris/HCl buffer pH 8.0 to give a final substrate concentration of 0.8 mM. The reaction (1 mL) was started by adding an appropriate amount of enzyme. One enzyme unit (U) was defined as the amount of enzyme that produced 1 μmol of product (pNP) per min; specific activity was expressed as U/mg protein. A molar extinction coefficient of 15 mM^−1 cm^−1 was used for the calculation.
# Purified cutinases were incubated at room temperature in the presence of 0, 30, 100, 300, 1500, and 3000 ppm of hydrogen peroxide. Residual enzyme activity was assayed (see Example 20.1) after 1, 2, 3, and 7 days of incubation.
# pH dependence of enzymes = assay type: biochemical; conditions: for Relative activity (%): highest activity = 100%
# Method: The influence of different pH values (from 5.5 to 11) on the activities of the purified enzymes was examined in three buffer systems (sodium acetate, sodium phosphate, and Tris-HCl) at room temperature using pNP-palmitate (see esterase assay in Example 20.1) as a substrate at a final substrate concentration of 0.8 mM.
# [4] = Enzymatic activity in the presence of organic solvents; assay type: biochemical; conditions: buffer only = 100%
# Method: Enzyme activity in various organic solvents was studied over a concentration range of 1-30% at room temperature. pNP-palmitate was completely dissolved in 2-propanol (8 mM) and then added to 50 mM Tris/HCl buffer pH 8.0 containing up to 30% organic solvent to give a final substrate concentration of 0.8 mM. The reaction was started by addition of enzyme and the formation of pNP was assayed as described above in Example 20.1.
# [5] = Activity of crude culture supernatants from bioreactor; assay type: biochemical; conditions: pNP-dodecanoate
# Temperature optimum = assay type: biochemical; conditions: for Relative activity at temperature: highest activity set to 100%
# Method: For estimation of the temperature optimum, buffer containing pNP-palmitate (see esterase assay in Example 20.1) was pre-incubated to reach the desired temperature, enzyme was then added, and the formation of pNP was assayed. For this experiment, Tris/HCl buffer was replaced with sodium phosphate buffer (50 mM, pH 8.0) to avoid a pH shift at the different temperatures.
molecule,measurement,setting,value
B1,Residual ochratoxin A (%),[1]; 1 h,6%
same,Residual ochratoxin A (%),[1]; 4 h,0%
same,Residual ochratoxin A (%),[1]; 24 h,0%
same,Ochratoxin A degraded,[1]; after 4 hours,100%
same,Ochratoxin A Degradation per U and h,[1]; per 1 U of enzyme (pNP standard test) and hour at 37° C.,3 µmol
same,refolding,[2]; CD at 222 nm,did not show any refolding
same,melting temperature (Tm),"[2]; CD at 222 nm, unfolding",55.0 °C
same,Tm (° C.),[2]; estimated using CD-spectroscopy,55 ± 1 °C
same,Relative activity (%) after exposure to hydrogen peroxide,"[3]; H2O2 30 ppm, Day 0",92 ± 3%
same,Relative activity (%) after exposure to hydrogen peroxide,"[3]; H2O2 30 ppm, Day 1",90 ± 15%
same,Relative activity (%) after exposure to hydrogen peroxide,"[3]; H2O2 30 ppm, Day 2",82 ± 8%
same,Relative activity (%) after exposure to hydrogen peroxide,"[3]; H2O2 30 ppm, Day 3",71 ± 4%
same,Relative activity (%) after exposure to hydrogen peroxide,"[3]; H2O2 30 ppm, Day 7",63 ± 5%
same,Relative activity (%) after exposure to hydrogen peroxide,"[3]; H2O2 100 ppm, Day 0",101 ± 3%
same,Relative activity (%) after exposure to hydrogen peroxide,"[3]; H2O2 100 ppm, Day 1",97 ± 5%
same,Relative activity (%) after exposure to hydrogen peroxide,"[3]; H2O2 100 ppm, Day 2",83 ± 2%
same,Relative activity (%) after exposure to hydrogen peroxide,"[3]; H2O2 100 ppm, Day 3",73 ± 5%
same,Relative activity (%) after exposure to hydrogen peroxide,"[3]; H2O2 100 ppm, Day 7",69 ± 4%
same,Relative activity (%) after exposure to hydrogen peroxide,"[3]; H2O2 300 ppm, Day 0",100 ± 9%
same,Relative activity (%) after exposure to hydrogen peroxide,"[3]; H2O2 300 ppm, Day 1",88 ± 5%
same,Relative activity (%) after exposure to hydrogen peroxide,"[3]; H2O2 300 ppm, Day 2",83 ± 2%
same,Relative activity (%) after exposure to hydrogen peroxide,"[3]; H2O2 300 ppm, Day 3",72 ± 10%
same,Relative activity (%) after exposure to hydrogen peroxide,"[3]; H2O2 300 ppm, Day 7",61 ± 4%
same,Relative activity (%) after exposure to hydrogen peroxide,"[3]; H2O2 1,500 ppm, Day 0",91 ± 8%
same,Relative activity (%) after exposure to hydrogen peroxide,"[3]; H2O2 1,500 ppm, Day 1",97 ± 9%
same,Relative activity (%) after exposure to hydrogen peroxide,"[3]; H2O2 1,500 ppm, Day 2",75 ± 15%
same,Relative activity (%) after exposure to hydrogen peroxide,"[3]; H2O2 1,500 ppm, Day 3",73 ± 3%
same,Relative activity (%) after exposure to hydrogen peroxide,"[3]; H2O2 1,500 ppm, Day 7",60 ± 6%
same,Relative activity (%) after exposure to hydrogen peroxide,"[3]; H2O2 3,000 ppm, Day 0",86 ± 6%
same,Relative activity (%) after exposure to hydrogen peroxide,"[3]; H2O2 3,000 ppm, Day 1",68 ± 9%
same,Relative activity (%) after exposure to hydrogen peroxide,"[3]; H2O2 3,000 ppm, Day 2",63 ± 4%
same,Relative activity (%) after exposure to hydrogen peroxide,"[3]; H2O2 3,000 ppm, Day 3",67 ± 2%
same,Relative activity (%) after exposure to hydrogen peroxide,"[3]; H2O2 3,000 ppm, Day 7",55 ± 3%
same,Relative activity (%) after exposure to hydrogen peroxide,"[3]; H2O2 3,000 ppm, Day 7, listed as Am—Kr",55%
same,pH opt.,pH dependence of enzymes,9.5
same,Relative activity (%),"pH dependence of enzymes; pH 6.5, sodium phosphate buffer",23 ± 2%
same,Relative activity (%),"pH dependence of enzymes; pH 7.0, sodium phosphate buffer",46 ± 3%
same,Relative activity (%),"pH dependence of enzymes; pH 7.5, sodium phosphate buffer",54 ± 3%
same,Relative activity (%),"pH dependence of enzymes; pH 8.0, Tris/HCl",84 ± 2%
same,Relative activity (%),"pH dependence of enzymes; pH 8.5, Tris/HCl",88 ± 9%
same,Relative activity (%),"pH dependence of enzymes; pH 9.0, Tris/HCl",91 ± 5%
same,Relative activity (%),"pH dependence of enzymes; pH 9.5, Tris/HCl",100* %
same,Relative activity (%),"pH dependence of enzymes; pH 10, Tris/HCl",47 ± 4%
same,Relative activity (%),"pH dependence of enzymes; pH 10.5, Tris/HCl",10 ± 1%
same,Relative enzymatic activity (%),[4]; 2-Propanol 5% (v/v),70 ± 10%
same,Relative enzymatic activity (%),[4]; 2-Propanol 10% (v/v),23 ± 2%
same,Relative enzymatic activity (%),[4]; Acetone 1% (v/v),118 ± 1%
same,Relative enzymatic activity (%),[4]; Acetone 5% (v/v),90 ± 14%
same,Relative enzymatic activity (%),[4]; Acetone 10% (v/v),74 ± 7%
same,Relative enzymatic activity (%),[4]; Dimethyl sulfoxide (DMSO) 10% (v/v),114 ± 2%
same,Relative enzymatic activity (%),[4]; Dimethyl sulfoxide (DMSO) 20% (v/v),90 ± 8%
same,Relative enzymatic activity (%),[4]; Dimethyl sulfoxide (DMSO) 30% (v/v),60 ± 5%
same,Relative enzymatic activity (%),[4]; Dimethylformamide (DMF) 5% (v/v),120 ± 11%
same,Relative enzymatic activity (%),[4]; Methanol 10% (v/v),87 ± 10%
same,Relative enzymatic activity (%),[4]; Methanol 20% (v/v),60 ± 13%
same,activity of crude culture supernatant,[5],0.5 U/mL
same,Temp. opt. (° C.),Temperature optimum,45 °C
same,Relative activity at temperature,Temperature optimum; 20 ° C.,50 ± 2%
same,Relative activity at temperature,Temperature optimum; 25 ° C.,61 ± 2%
same,Relative activity at temperature,Temperature optimum; 30 ° C.,69 ± 2%
same,Relative activity at temperature,Temperature optimum; 35 ° C.,78 ± 1%
same,Relative activity at temperature,Temperature optimum; 40 ° C.,87 ± 2%
same,Relative activity at temperature,Temperature optimum; 45 ° C.,100* %
same,Relative activity at temperature,Temperature optimum; 50 ° C.,81 ± 10%
same,Relative activity at temperature,Temperature optimum; 55 ° C.,37 ± 5%
same,Relative activity at temperature,Temperature optimum; 60 ° C.,9 ± 1%
